We go through one molecule from PMC4627090, “Slicer-independent mechanism drives small-RNA strand separation during human RISC assembly”.

In the series the target is recombinant human AGO2 (rhAGO2) (Homo sapiens, UniProt Q9UKV8 1-859). As to the kind of experiment: EMSA; 25 C; EMSA: 10 mM HEPES-KOH pH 7.4, 50 mM KCl, 1 mM DTT, 3% Ficoll-400, 0.1 mg/ml BSA, 10 nM RNA, 0-200 nM hAGO2, 30 min at 25 or 37 C, 6% native gel at 4 C; RISC assembly in HEK293T lysate at 0.75-3.75 mM Mg2+, 25 or 37 C. The conditions noted are these: protein: recombinant; tags: N-terminal FLAG and His; label: 32P; single strand.
Sequence of recombinant human AGO2 (rhAGO2) (Q9UKV8 whole entry): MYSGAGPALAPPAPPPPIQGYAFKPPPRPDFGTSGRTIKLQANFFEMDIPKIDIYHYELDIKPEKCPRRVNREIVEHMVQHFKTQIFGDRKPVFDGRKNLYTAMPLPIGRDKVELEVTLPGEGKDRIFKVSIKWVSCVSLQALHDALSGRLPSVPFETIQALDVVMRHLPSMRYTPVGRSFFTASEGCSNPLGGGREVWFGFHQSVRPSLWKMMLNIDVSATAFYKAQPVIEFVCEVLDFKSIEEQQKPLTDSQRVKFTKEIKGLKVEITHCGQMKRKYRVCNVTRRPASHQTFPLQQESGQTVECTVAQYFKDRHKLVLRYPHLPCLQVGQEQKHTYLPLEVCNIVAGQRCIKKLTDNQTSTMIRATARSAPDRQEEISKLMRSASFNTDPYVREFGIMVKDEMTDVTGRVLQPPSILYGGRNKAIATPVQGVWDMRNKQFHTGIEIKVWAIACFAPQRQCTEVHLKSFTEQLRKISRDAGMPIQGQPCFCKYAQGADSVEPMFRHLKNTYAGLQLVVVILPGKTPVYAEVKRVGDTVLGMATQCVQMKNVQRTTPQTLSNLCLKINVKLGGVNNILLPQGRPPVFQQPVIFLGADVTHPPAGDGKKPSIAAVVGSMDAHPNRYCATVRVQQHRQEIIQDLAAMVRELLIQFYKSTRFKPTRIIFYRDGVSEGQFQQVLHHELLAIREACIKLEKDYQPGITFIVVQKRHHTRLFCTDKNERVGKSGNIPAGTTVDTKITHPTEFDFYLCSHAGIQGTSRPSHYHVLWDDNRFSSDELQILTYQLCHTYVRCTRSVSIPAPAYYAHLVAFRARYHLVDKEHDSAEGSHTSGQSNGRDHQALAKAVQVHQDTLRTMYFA

For UGGAAUGUAAAGAAGUAUGUA (ssRNA) [miR-1 guide ssRNA], the dissociation constant (Kd) was roughly 44.4 nM.
